In PMC12809509:

Biological target: Prebiotinylated FcγRI (Biotinylated Human CD64 Protein, His, Avitag) (human) (UniProt P12314)
Experiment: SPR; Biacore T200; biotinylated FcγRI immobilised on a streptavidin SA chip (F-chip); single-cycle kinetics, OPD injected at 90, 30, 10 nM, 120 s contact, 900 s dissociation; running buffer HBS-EP 1x pH 7.4; double-referenced; 1:1 Langmuir fit; mean ± SD, n = 3

Sequence of UniProt P12314 (P12314 16-292): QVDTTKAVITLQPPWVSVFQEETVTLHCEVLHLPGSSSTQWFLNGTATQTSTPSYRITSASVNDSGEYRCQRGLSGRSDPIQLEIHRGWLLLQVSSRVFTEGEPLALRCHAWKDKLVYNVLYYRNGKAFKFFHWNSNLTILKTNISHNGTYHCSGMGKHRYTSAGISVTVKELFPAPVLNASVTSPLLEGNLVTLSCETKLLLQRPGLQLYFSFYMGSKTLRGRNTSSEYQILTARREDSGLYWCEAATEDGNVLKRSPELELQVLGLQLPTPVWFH

Kd: 7.33 nM
koff: 0.00093 s⁻¹
kon: 127000 M⁻¹ s⁻¹
Substance: nivolumab (antibody)
